Experimental data: patent US20250092135A1 (NANJING LEADS BIOLABS, published 2025)

T1: human MUC16 protein (ECT_TM huMuc16) on 293T cells (human)
T1 chain: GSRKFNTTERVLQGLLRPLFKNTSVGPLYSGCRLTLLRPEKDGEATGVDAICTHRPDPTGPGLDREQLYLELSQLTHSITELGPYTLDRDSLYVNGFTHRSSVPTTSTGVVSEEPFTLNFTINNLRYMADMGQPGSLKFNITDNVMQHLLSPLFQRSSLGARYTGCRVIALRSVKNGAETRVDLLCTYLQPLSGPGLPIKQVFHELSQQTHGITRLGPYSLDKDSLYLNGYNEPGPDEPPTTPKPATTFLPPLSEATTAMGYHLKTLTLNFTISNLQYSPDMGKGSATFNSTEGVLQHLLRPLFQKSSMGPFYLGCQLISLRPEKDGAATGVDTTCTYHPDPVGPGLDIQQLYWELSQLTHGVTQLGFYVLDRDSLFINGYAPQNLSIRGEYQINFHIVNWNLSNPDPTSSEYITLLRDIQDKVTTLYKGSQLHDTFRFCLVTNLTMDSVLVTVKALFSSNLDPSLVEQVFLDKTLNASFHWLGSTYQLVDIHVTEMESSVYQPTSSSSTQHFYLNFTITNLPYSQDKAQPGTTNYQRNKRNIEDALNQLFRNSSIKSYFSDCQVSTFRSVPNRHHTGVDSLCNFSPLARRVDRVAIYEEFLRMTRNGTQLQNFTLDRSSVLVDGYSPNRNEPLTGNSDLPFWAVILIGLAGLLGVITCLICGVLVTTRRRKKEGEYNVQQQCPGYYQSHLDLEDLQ

T2: rhesus monkey MUC16 protein (ECT_TM RhMuc16) on 293T cells (rhesus monkey)
T2 chain: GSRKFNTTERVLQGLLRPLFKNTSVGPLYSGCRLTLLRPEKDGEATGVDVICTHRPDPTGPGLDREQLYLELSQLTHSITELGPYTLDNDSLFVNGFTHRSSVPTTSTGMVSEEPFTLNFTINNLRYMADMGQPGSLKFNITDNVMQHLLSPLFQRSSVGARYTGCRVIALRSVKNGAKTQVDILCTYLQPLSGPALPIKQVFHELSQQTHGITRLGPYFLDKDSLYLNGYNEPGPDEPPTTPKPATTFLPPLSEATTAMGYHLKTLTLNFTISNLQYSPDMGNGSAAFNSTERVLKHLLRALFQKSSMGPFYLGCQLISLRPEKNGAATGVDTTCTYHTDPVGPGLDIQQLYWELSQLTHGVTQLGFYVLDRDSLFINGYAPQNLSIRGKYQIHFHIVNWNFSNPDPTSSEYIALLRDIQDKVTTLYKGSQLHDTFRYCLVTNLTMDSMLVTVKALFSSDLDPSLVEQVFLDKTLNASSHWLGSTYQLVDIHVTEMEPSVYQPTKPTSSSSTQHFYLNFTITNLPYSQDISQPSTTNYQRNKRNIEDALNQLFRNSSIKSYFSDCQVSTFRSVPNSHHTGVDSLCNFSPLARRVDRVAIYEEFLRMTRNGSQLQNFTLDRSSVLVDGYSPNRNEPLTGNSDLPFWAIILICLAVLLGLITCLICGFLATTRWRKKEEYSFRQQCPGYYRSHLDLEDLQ


Tests used:
[1] = biological target: T3, human MUC16 protein endogenously expressed on cells (human, UniProt Q8WXI7 1-14507); experiment: flow cytometry, OVCAR3 cells (endogenous human MUC16), PE anti-human IgG Fc secondary, MFI; EC50 table under the plot, unit from the axis Conc.(nM)
T3 construct: whole, on cells; also called MUC16 on OVCAR3 cells; MUC16 in ovarian carcinoma tissue
Method: (1) Whether the anti-CD3/anti-MUC16 bispecific antibodies in the present invention could bind to the MUC16 protein endogenously expressed on human ovarian carcinoma cells (OVCAR3) (Cell Bank of Type Culture Collection Committee of the Chinese Academy of Sciences, Cat #TCHu228) was determined by cell binding experiments.
The experiments were performed using flow cytometry. OVCAR3 cells were digested, centrifuged and collected. The cells were resuspended in a PBS solution, and seeded into a 96-well plate (Corning, Cat #3799) at 1×10⁵ cells/well. The 96-well plate was centrifuged and then the supernatant was discarded. 100 μL of the serially diluted test bispecific antibody (at a maximum concentration of 200 nM, 5-fold dilution from 100 nM, 9 concentration points in total) was added to the OVCAR3 cells. The plate was incubated at 4° C. for 30 min and centrifuged (1000 rpm, 5 min), and then the supernatant was discarded. 100 μL of PBS solution was added to each well, and the cells were washed twice. 100 μL of fluorescent secondary antibody R-PE-conjugated AffiniPure Goat Anti-Human IgG, Fcγ Fragment Specific (Jackson ImmunoResearch, Cat #109-116-098) diluted in a ratio of 1:200 was then added. The cells were incubated at 4° C. for 30 min. After the cells were washed twice with the PBS solution, 100 μL of PBS solution was added to each well to resuspend the cells, and finally, fluorescence signals were detected using a BD Accuri C5 (BD Bioscience) flow cytometer according to the manufacturer's instructions. REGN4018 was used as a positive control.

[2] = biological target: T1, human MUC16 protein (ECT_TM huMuc16) on …; experiment: cell binding on 293T/hMUC16 cells, read as MFI (the legend calls it ELISA); EC50 table under the plot, unit from the axis Conc.(nM)
[3] = biological target: T2, rhesus monkey MUC16 protein (ECT_TM …); experiment: flow cytometry, 293T/rhesus MUC16 cells as printed on the sheet and in the legend (the example, paragraph 611, speaks of cynomolgus MUC16), PE anti-human IgG Fc secondary, MFI; EC50 table under the plot, unit from the axis Conc.(nM); curve still rising at the top concentration of 100 nM
Method: Referring to the flow cytometry described above, the serially diluted test bispecific antibody (at an initial concentration of 100 nM, 5-fold dilution, 9 points) was added to the cells, and the plate was incubated at 4° C. for 30 min. The cells were washed twice with PBS, and then fluorescent secondary antibody R-PE-conjugated AffiniPure Goat Anti-Human IgG, Fcγ Fragment Specific was added. The cells were incubated at 4° C. for 30 min. The cells were washed twice with PBS and then resuspended, and finally, fluorescence signals were detected using a BD Accuri C5 (BD Bioscience) flow cytometer.

| EC50 [1] [nM] | EC50 [2] [nM] | EC50 [3] [nM] | Binder |
| --- | --- | --- | --- |
| 2.73 | 2.28 | 59.4 | humanized anti-MUC16 antibody Hu-L4H7 (antibody, human IgG1, kappa, L234A L235A, V domains shown, human IgG1 with L234A, L235A, D265A, P329A and kappa; Biotinylated in the CA125 ELISA; also called humanized MUC-16 antibody) VH: QVQLVQSGAEVKKPGASVKVSCKASGYTFTDYNIHWVRQAPGQGLEWMGYIYPYNGVSDYNQNFKSRVTMTTDTSTSTAYMELRSLRSDDTAVYYCARWDFGSGYYFDYWGQGTLVTVSS VL: EIVLTQSPATLSLSPGERATLSCRASSSVIYMSWYQQKPGQAPRLLIYGTSTLASGIPARFSGSGSGTDFTLTISSLEPEDFAVYYCQQWSSNPFTFGQGTKLEIKR |
| 4.21 | – | 52.2 | anti-CD3/MUC16 bispecific antibody MCH7-23L2-MCH7 (bispecific antibody, human IgG1, kappa, L234A L235A, MCH7-23L2ScFv-Hole (VH-CH1-scFv-Fc) + MCH7-KIH-Knob + two light chains MCL4 LC) heavy 1: QVQLVQSGAEVKKPGASVKVSCKASGYTFTDYNIHWVRQAPGQGLEWMGYIYPYNGVSDYNQNFKSRVTMTTDTSTSTAYMELRSLRSDDTAVYYCARWDFGSGYYFDYWGQGTLVTVSSASTKGPSVFPLAPSSKSTSGGTAALGCLVKDYFPEPVTVSWNSGALTSGVHTFPAVLQSSGLYSLSSVVTVPSSSLGTQTYICNVNHKPSNTKVDKKVEPKSCEVQLVESGGGLVQPGGSLKLSCAASGFTFSTYAMNWVRQAPGKGLEWVGRIRSKYNNYATYYADSVKDRFTISRDDSKNTLYLQMNSLKTEDTAVYYCTRHGNFGNSYVSWFAYWGQGTTVTVSSGGGGSGGGGSGGGGSQAVVTQEPSLTVSPGGTVTLTCRSSTGAVTTSNYANWVQQKPGQAPRGLIGGTNKRAPGVPARFSGSLLGGKAALTLSGAQPEDEAEYFCALWYSNLWVFGGGTKLTVLGEPKSSDKTHTCPPCPAPEAAGGPSVFLFPPKPKDTLMISRTPEVTCVVVAVSHEDPEVKFNWYVDGVEVHNAKTKPREEQYNSTYRVVSVLTVLHQDWLNGKEYKCKVSNKALAAPIEKTISKAKGQPREPQVCTLPPSRDELTKNQVSLSCAVKGFYPSDIAVEWESNGQPENNYKTTPPVLDSDGSFFLVSKLTVDKSRWQQGNVFSCSVMHEALHNHYTQKSLSLSPGK heavy 2: not shown light: EIVLTQSPATLSLSPGERATLSCRASSSVIYMSWYQQKPGQAPRLLIYGTSTLASGIPARFSGSGSGTDFTLTISSLEPEDFAVYYCQQWSSNPFTFGQGTKLEIKRTVAAPSVFIFPPSDEQLKSGTASVVCLLNNFYPREAKVQWKVDNALQSGNSQESVTEQDSKDSTYSLSSTLTLSKADYEKHKVYACEVTHQGLSSPVTKSFNRGEC |
| – | 6.67 | – | anti-MUC16 antibody 776.1(C33S) (antibody, human IgG1, kappa, L234A L235A, V domains shown) VH: EVQLQQSGPELVKPGASVKISCKASGYTFTDYNIHWVKQSHGKILEWIGYIYPYNGVSDYNQNFKSKATLIVDNSSNTAYMELRSLTSEDSAVYYCARWDFGSGYYFDYWGQGTTLTVSS VL: QIVLSQSPAILFASPGETVTMTCRASSSVIYMSWNQQKPGSSPKPWIYGTSTLASGVPTRFSGSGSGTSYSLTISRVEAEDAATYYCQQWSSNPFTFGSGTKLEIKR |
